Data taken from paper PMC9841331 (The EMBO Journal, 2023).
Residue numbers refer to the chain shown, from its start. “And” between values parts separate entries of the source, which are not always exact repeats. Equal values may be shown once. Blank lines part the entries; values can stand above or below the binder they belong to.

How the values were obtained:
[1] = molecular target: retromer^mRuby (yeast Vps26/Vps29/Vps35 complex labelled with mRuby) (S. cerevisiae, UniProt P40335 1-379; P38759 1-282; P34110 1-944); assay: fluorescence microscopy of recruitment to supported membrane tubes
native gel or EMSA = molecular target: the molecule itself; assay: native gel or EMSA

binding result [1]: binds
B1: SNX-BAR complex (yeast sorting nexins Vps5/Vps17) (complex, S. cerevisiae)
chain 1: MDYEDNLEAPVWDELNHEGDKTQSLVSNSIESIGQISTNEERKDNELLETTASFADKIDLDSAPEWKDPGLSVAGNPQLEEHDNSKADDLINSLAPEQDPIADLKNSTTQFIATRESGGALFTGNANSPLVFDDTIYDANTSPNTSKSISGRRSGKPRILFDSARAQRNSKRNHSLKAKRTTASDDTIKTPFTDPLKKAEKENEFVEEPLDDRNERRENNEGKFTASVEKNILEQVDRPLYNLPQTGANISSPAEVEENSEKFGKTKIGSKVPPTEKAVAFKVEVKDPVKVGELTSIHVEYTVISESSLLELKYAQVSRRYRDFRWLYRQLQNNHWGKVIPPPPEKQSVGSFKENFIENRRFQMESMLKKICQDPVLQKDKDFLLFLTSDDFSSESKKRAFLTGSGAINDSNDLSEVRISEIQLLGAEDAAEVLKNGGIDAESHKGFMSISFSSLPKYNEADEFFIEKKQKIDELEDNLKKLSKSLEMVDTSRNTLAASTEEFSSMVETLASLNVSEPNSELLNNFADVHKSIKSSLERSSLQETLTMGVMLDDYIRSLASVKAIFNQRSKLGYFLVVIENDMNKKHSQLGKLGQNIHSEKFREMRKEFQTLERRYNLTKKQWQAVGDKIKDEFQGFSTDKIREFRNGMEISLEAAIESQKECIELWETFYQTNL
chain 2: MTSAVPYDPYDDLDNNPFAEPQEEDSEPAATTTDGSSSMSEERVGTEQTAASVQDNGTANNIQNGLGEEGNATRSKTSNEHNENQQPSQPSERVILPERSDEKKKYTLLAKVTGLERFGSATGKKENPTIIFDCSTNLPTFRKQQYKNVKKSYEEFHQLFKYLNVAIQESFVPTLPSAYTTFGINSEEDRMKVTRNFQLWFNRLSQDPLIIRNEEVAFFIESDFNTYTPINKSKSLASGLKRKTLKQLAPPYDEITELAEFRPLVKSIYVVSQSLQEKLLRVSRNRKMMVQEENAFGQDFVNLDEHNKLYRRYGKILTAVGDIDSIIATMDMATLYDGLEWIVRDAYAVKEALTNRHFIMRNLVQAQQNSKAKQEQARRFRSRRDINPMKIDEALRQLKAAAKNEQVLTLKLQRITSNMIIERKQWISWYEEWIRSSIKEFTLRKIEYERKKLTLLERVRSDIRKADENGGLSRLGRHAVSNNNSDTSQTLKGDSWTGESNRKSQIPINKIAHTEFDDELFTEDDGYNSQDSDTTSLNARHAASLLGMSTK

B2: retromer^mClover (yeast Vps26/Vps29/Vps35 complex carrying mClover-tagged Vps29), wild-type Vps35 (complex, S. cerevisiae)
chain 1: MSIFFKPPIDIEILFDNEESRKHVDIATRSSNSSYKSMKESLPVYEDGESLGGIVTLRVRDSKKVDHLGIKVSVIGSIDMLKSHGSGNSSSKKVTSSTSSSSSNGSVDVRKNSVDQFLCQSYDLCPAGELQHSQSFPFLFRDLSKRYESYKGKNVDVAYYVKVTVMRKSTDISKIKRFWVYLYNSVTTAPNTLSANETKATTNDIAGGNYAADNASDNTQTKSTQGEAADVNQVLPISHSNNEPKPVRLDIGIENCLHIEFEYAKSQYSLKEVIVGRIYFLLTRLRIKHMELSLITRESSGLQTSNVMTDSTAIRYEIMDGSSVKGETIPIRLFLSGYDLTPNMSCNYFNVKNYLSLVIIDEDGRRYFKQSEITLYRTR
chain 2: MLLLALSDAHIPDRATDLPVKFKKLLSVPDKISQVALLGNSTKSYDFLKFVNQISNNITIVRGEFDNGHLPSTKKDKASDNSRPMEEIPMNSIIRQGALKIGCCSGYTVVPKNDPLSLLALARQLDVDILLWGGTHNVEAYTLEGKFFVNPGSCTGAFNTDWPIVFDVEDSDEAVTSEVDKPTKENQSEDDDAKGGSTGKEQPGSYTPKEGTAGERENENESNVKPENQFKEDEVDMSDSDINGSNSPSFCLLDIQGNTCTLYIYLYVNGEVKVDKVVYEKE
chain 3: MAYADSPENAIAVIKQRTALMNRCLSQHKLMESLQHTSIMLTELRNPNLSPKKYYELYVIIFDSLTNLSTYLIENHPQNHHLADLYELVQYTGNVVPRLYLMITVGTSYLTFNEAPKKEILKDMIEMCRGVQNPIRGLFLRYYLSQRTKELLPEDDPSFNSQFIMNNFIEMNKLWVRLQHQGPLRERETRTRERKELQILVGSQLVRLSQIIDDNFQMYKQDILPTILEQVIQCRDLVSQEYLLDVICQVFADEFHLKTLDTLLQTTLHLNPDVSINKIVLTLVDRLNDYVTRQLEDDPNATSTNAYLDMDVFGTFWDYLTVLNHERPDLSLQQFIPLVESVIVLSLKWYPNNFDNLNKLFELVLQKTKDYGQKNISLESEHLFLVLLSFQNSKLQLTSSTTAPPNSPVTSKKHFIFQLISQCQAYKNILALQSISLQKKVVNEIIDILMDREVEEMADNDSESKLHPPGHSAYLVIEDKLQVQRLLSICEPLIISRSGPPANVASSDTNVDEVFFNRHDEEESWILDPIQEKLAHLIHWIMNTTSRKQTMKNKIQFSLEAQLEILLLIKSSFIKGGINVKYTFPAIITNFWKLMRKCRMIQEYLLKKRPDNKTLLSHYSNLLKQMFKFVSRCINDIFNSCNNSCTDLILKLNLQCAILADQLQLNEISYDFFSQAFTIFEESLSDSKTQLQALIYIAQSLQKTRSLYKEAYYDSLIVRCTLHGSKLLKKQDQCRAVYLCSHLWWATEISNIGEEEGITDNFYRDGKRVLECLQRSLRVADSIMDNEQSCELMVEILNRCLYYFIHGDESETHISIKYINGLIELIKTNLKSLKLEDNSASMITNSISDLHITGENNVKASSNADDGSVITDKESNVAIGSDGTYIQLNTLNGSSTLIRGVVATASGSKLLHQLKYIPIHHFRRTCEYIESQREVDDRFKVIYV
stoichiometry N (native gel or EMSA): 2 and 4

B3: retromer^PISA-mClover (Vps26/Vps29-mClover/Vps35^PISA) (complex, S. cerevisiae)
chain 1: B2 chain 1
chain 2: B2 chain 2
chain 3: B2 chain 3 with D671A, L722A, K726A, R775A
binding result (native gel or EMSA): binds
